Values of other authors, collected in publication PMC5331060.
Read-outs that look alike come from different tables or passages of the source.

Tests used:
[1] = target: beta clamp (Escherichia coli) (UniProt P0A988)
[2] = target: beta clamp (Escherichia coli) (UniProt P0A988); remark: listed apart in the source

Chain of UniProt P0A988 (P0A988 whole entry): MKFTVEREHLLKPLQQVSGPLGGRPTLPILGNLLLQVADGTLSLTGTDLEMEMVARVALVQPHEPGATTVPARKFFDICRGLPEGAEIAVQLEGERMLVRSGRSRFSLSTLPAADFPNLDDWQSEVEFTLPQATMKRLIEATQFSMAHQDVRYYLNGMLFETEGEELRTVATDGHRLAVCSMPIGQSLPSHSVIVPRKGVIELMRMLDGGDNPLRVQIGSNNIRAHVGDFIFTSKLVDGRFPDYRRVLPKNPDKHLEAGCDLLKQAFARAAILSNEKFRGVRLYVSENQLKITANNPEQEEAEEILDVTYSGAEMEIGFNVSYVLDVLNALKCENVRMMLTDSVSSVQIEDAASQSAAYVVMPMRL

Row | Substance | Kd [1] [nM] | Kd [2] [nM]
1 | DinB (Pol IV) (from UniProt Q47155) | 460 | 
2 | Pol III alpha (from UniProt P10443) |  | 108
